Fold increase of normalized mRFP1 intensity, fold difference of mRFP1 intensity between dark and light conditions and fold increase of mRFP1 signal data for 2 substances are collected here from patent publication US20220356216A1.

Assay [1] concerns the target mRFP1-sspB-Nano (mRFP1 fused to the sspB-Nano protein, his-MBP removed by TEV protease). In words: fluorescence microscopy of RFP-sspB-Nano recruitment to synthetic cells with membrane-bound protein; activation by coelenterazine (bioluminescence).
Assay [2] shares this target. In words: fluorescence microscopy of RFP-sspB-Nano recruitment to synthetic cells with membrane-bound protein; activation by blue laser light.
For assay [3] the target is unchanged. In words: fluorescence microscopy of RFP-sspB-Nano recruitment to synthetic cells with membrane-bound protein; activation by 488 nm laser.

Bounds are passed on as bounds.

Take “his-Gluc-iLID (fusion of N-terminal Gaussia luciferase and C-terminal iLID with a linker peptide and an N-terminal his-tag)”: the fold increase of normalized mRFP1 intensity at the membrane against the dark conditions in assay [1] amounted to 2.5 fold. Besides, in assay [2], the fold difference of mRFP1 intensity between dark and light conditions is > 8 fold.
Consider “his-iLID (his-tagged improved light-induced dimer)”, for which the fold increase of mRFP1 signal at the membrane against the dark conditions in assay [3] worked out at 1.5 fold.
